From patent US20070218504A1, “HUMAN LEPTIN-DERIVED POLYPEPTIDES AND USES THEREOF” (UNIVERSITY OF PITTSBURGH, priority 2006, published 2007)
“Also recorded” adds a separate entry of the source.

Columns and labels:
mouse leptin = molecular target: T1, mouse leptin (Mus musculus, UniProt P41160); experiment: Immuno-precipitation assay of direct binding of rat CRP and mouse leptin; details: leptin/CRP mixture and rat serum; Western blot with anti-CRP
T1 construct: purchased AF Parlow of NHPP, Torrance, CA
Procedure: To explore a physical interaction between CRP and leptin, the direct binding of these proteins was determined by an immuno-precipitation assay. Rat CRP was purified from fresh rat serum to >95% purity employing a previously established affinity-purification protocol (20). […] The purified human- and rat-CRP proteins were pre-mixed with recombinant human and mouse leptin, respectively, before addition of antibodies specific for human- and mouse-leptin. The concentrations of CRP and leptin in the precipitation reaction were all within the physiological ranges that have been observed in humans or rats (11 & 15). In parallel experiments, recombinant leptin also was pre-mixed with human- or rat-serum to allow for direct interaction prior to immuno-precipitation. The protein precipitates obtained were subjected to Western blot assays using specific anti-CRP antibodies.

[1] = system: tyrosine phosphorylation of STAT3; experiment: Leptin-induced tyrosine phosphorylation of STAT3 in HEK293 cells over-expressing OB-Rb in the presence of CRP (Western blot); format: cell-based, human; details: murine/mouse leptin; HEK293 OB-Rb
Procedure: To determine if the interaction between CRP and leptin dampens the cellular actions of leptin, the ability of leptin to stimulate tyrosine phosphorylation of STAT3 and PI3-kinase activity was assessed in the presence of CRP in vitro. HEK293 cells over-expressing OB-Rb were serum starved for 2 hours before addition of leptin and CRP (CHEMICON or EMD Biosciences). Leptin, in the presence or absence of CRP, was pre-incubated in μ-MEM (with additional 1 mM Ca^2+) for 30 minutes at 37° C. before being applied to the cells. After a 30-minute incubation with leptin, the cells were harvested in lysis buffer (18). The resultant protein extract was subjected to a Western blot analysis using an anti-phospho-STAT3 specific antibody (Cell Signaling, Beverly, Mass.). For studies involving primary hypothalamic neurons, the hypothalamus from rats was surgically isolated immediately after euthanasia, and placed in the DMEM for incubation with leptin in the presence or absence of CRP.

[2] = system: insulin-stimulated PI3-kinase activity; experiment: Insulin-stimulated PI3-kinase activity in 3T3-L1 adipocytes; format: cell-based

T1 sequence (P41160 22-167): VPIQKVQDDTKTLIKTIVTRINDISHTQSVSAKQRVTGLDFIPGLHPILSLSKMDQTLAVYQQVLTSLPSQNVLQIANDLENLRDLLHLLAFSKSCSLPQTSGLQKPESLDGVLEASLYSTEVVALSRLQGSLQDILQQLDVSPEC

B1: rat CRP: rat C-reactive protein purified from fresh rat serum to >95% purity (protein)
chain: HEDMSKQAFVFPGVSATAYVSLEAESKKPLEAFTVCLYAHADVSRSFSIFSYATKTSFNEILLFWTRGQGFSIAVGGPEILFSASEIPEVPTHICATWESATGIVELWLDGKPRVRKSLQKGYIVGTNASIILGQEQDSYGGGFDANQSLVGDIGDVNMWDFVLSPEQINAVYVGRVFSPNVLNWRALKYETHGDVFIKPQLWPLTDCCES
For B1, the “co-precipitation of CRP with anti mouse-leptin antibody” value (mouse leptin) was “could bring down rat CRP”, the “effect of CRP on murine leptin-induced tyrosine phosphorylation of STAT3” value [1] was “attenuating effects; also recorded: attenuate” and the “effect on insulin-stimulated PI3-kinase activity” value [2] was “did not block”.
